Results on one molecule are retold here after US20190127457A1 (Hoffmann-La Roche, published 2019).

The assay deals with T1, human neonatal Fc-receptor (FcRn) (human, UniProt P55899 24-297; P61769 21-119).
T1 construct: also called human FcRn; huFcRn
Description: symmetric HHY-AAA mutation.

T1 sequence (P55899 24-297 limits assumed, chain 1 of 2): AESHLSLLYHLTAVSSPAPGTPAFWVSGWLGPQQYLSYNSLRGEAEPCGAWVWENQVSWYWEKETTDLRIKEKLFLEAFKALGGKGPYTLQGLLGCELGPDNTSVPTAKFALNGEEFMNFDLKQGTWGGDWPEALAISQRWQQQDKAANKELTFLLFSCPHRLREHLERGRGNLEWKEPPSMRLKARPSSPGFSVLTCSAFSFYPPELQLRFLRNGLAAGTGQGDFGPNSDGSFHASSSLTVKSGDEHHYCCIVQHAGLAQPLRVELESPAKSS
T1 sequence (P61769 21-119 limits assumed, chain 2 of 2): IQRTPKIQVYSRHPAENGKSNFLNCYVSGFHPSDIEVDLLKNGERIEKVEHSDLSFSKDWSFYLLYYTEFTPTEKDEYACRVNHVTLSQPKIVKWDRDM

B1: IGF-1R 0045 (antibody, human IgG1, kappa)
light: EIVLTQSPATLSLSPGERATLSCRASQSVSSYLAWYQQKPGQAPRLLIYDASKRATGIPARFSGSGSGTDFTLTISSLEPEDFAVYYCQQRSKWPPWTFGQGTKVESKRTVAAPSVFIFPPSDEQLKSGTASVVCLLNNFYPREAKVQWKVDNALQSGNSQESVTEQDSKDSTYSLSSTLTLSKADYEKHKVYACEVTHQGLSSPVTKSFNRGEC
heavy: QVELVESGGGVVQPGRSQRLSCAASGFTFSSYGMHWVRQAPGKGLEWVAIIWFDGSSTYYADSVRGRFTISRDNSKNTLYLQMNSLRAEDTAVYFCARELGRRYFDLWGRGTLVSVSSASTKGPSVFPLAPSSKSTSGGTAALGCLVKDYFPEPVTVSWNSGALTSGVHTFPAVLQSSGLYSLSSVVTVPSSSLGTQTYICNVNHKPSNTKVDKKVEPKSCDKTHTCPPCPAPELLGGPSVFLFPPKPKDTLMISRTPEVTCVVVDVSHEDPEVKFNWYVDGVEVHNAKTKPREEQYNSTYRVVSVLTVLAQDWLNGKEYKCKVSNKALPAPIEKTISKAKGQPREPQVYTLPPSRDELTKNQVSLTCLVKGFYPSDIAVEWESNGQPENNYKTTPPVLDSDGSFFLYSKLTVDKSRWQQGNVFSCSVMHEALANHATQKSLSLSPG
notes: Roles inferred; also called <IGF-1R> IgG1 with H310A, H433A, Y436A; anti-IGF-1R IgG1 with HHY-AAA mutation
Regarding B1, the binding result is recorded as “no binding”.
